Literature values, collected in patent publication US7850723B1, “Method and apparatus for patient temperature control employing titration of therapy using EEG signals” (Innercool Therapies, Inc., priority 2005, dated 2010).

What was measured:
plasmin = plasmin (Homo sapiens, UniProt P00747)
clots [1] = conditions: clots treated with 2.5 μg/ml tPA; incubated at 37, 25, 10, 0 and −8° C.
clots [2] = conditions: tPA 0.3, 1.0 and 3.0 μg/ml; incubated at 24° C. to 40° C.

Chain of plasmin (P00747 581-810 limits assumed, species assumed): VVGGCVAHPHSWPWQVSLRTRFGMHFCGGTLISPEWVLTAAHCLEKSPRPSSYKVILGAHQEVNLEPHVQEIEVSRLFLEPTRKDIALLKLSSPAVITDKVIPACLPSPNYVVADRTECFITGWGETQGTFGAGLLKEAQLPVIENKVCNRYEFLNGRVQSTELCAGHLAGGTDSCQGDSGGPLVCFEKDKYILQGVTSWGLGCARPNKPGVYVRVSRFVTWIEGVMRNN
Chain of plasmin (P00747 97-580 partner limits assumed, species assumed): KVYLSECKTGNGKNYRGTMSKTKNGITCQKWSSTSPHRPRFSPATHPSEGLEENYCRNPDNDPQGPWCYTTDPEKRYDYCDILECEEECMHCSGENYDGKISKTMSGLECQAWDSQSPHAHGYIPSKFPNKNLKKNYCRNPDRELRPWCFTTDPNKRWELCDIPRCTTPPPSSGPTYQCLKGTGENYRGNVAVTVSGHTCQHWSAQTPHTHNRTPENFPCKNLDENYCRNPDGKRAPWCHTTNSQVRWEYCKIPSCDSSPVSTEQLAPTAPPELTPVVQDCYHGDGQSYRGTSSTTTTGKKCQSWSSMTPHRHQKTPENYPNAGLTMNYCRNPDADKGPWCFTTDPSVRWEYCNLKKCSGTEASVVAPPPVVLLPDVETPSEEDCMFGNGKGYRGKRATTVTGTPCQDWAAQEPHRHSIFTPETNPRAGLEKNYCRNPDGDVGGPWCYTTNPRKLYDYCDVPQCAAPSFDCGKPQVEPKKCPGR

B1: α2-antiplasmin (protein, UniProt P08697 40-491, looked up)
Alpha-2-antiplasmin: NQEQVSPLTLLKLGNQEPGGQTALKSPPGVCSRDPTPEQTHRLARAMMAFTADLFSLVAQTSTCPNLILSPLSVALALSHLALGAQNHTLQRLQQVLHAGSGPCLPHLLSRLCQDLGPGAFRLAARMYLQKGFPIKEDFLEQSEQLFGAKPVSLTGKQEDDLANINQWVKEATEGKIQEFLSGLPEDTVLLLLNAIHFQGFWRNKFDPSLTQRDSFHLDEQFTVPVEMMQARTYPLRWFLLEQPEIQVAHFPFKNNMSFVVLVPTHFEWNVSQVLANLSWDTLHPPLVWERPTKVRLPKLYLKHQMDLVATLSQLGLQELFQAPDLRGISEQSLVVSGVQHQSTLELSEVGVEAAAATSIAMSRMSLSSFSVNRPFLFFIFEDTTGLPLFVGSVRNPNPSAPRELKEQQDSPGNKDFLQSLKGFPRGDKLFGPDLKLVPPMEEDYPQFGSPK
plasmin
  time required to inactivate plasmin bound to a fibrin surface: about 10 seconds

B2: tissue plasminogen activator (protein, UniProt P00750 36-562, looked up)
Tissue-type plasminogen …: SYQVICRDEKTQMIYQQHQSWLRPVLRSNRVEYCWCNSGRAQCHSVPVKSCSEPRCFNGGTCQQALYFSDFVCQCPEGFAGKCCEIDTRATCYEDQGISYRGTWSTAESGAECTNWNSSALAQKPYSGRRPDAIRLGLGNHNYCRNPDRDSKPWCYVFKAGKYSSEFCSTPACSEGNSDCYFGNGSAYRGTHSLTESGASCLPWNSMILIGKVYTAQNPSAQALGLGKHNYCRNPDGDAKPWCHVLKNRRLTWEYCDVPSCSTCGLRQYSQPQFRIKGGLFADIASHPWQAAIFAKHRRSPGERFLCGGILISSCWILSAAHCFQERFPPHHLTVILGRTYRVVPGEEEQKFEVEKYIVHKEFDDDTYDNDIALLQLKSDSSRCAQESSVVRTVCLPPADLQLPDWTECELSGYGKHEALSPFYSERLKEAHVRLYPSSRCTSQHLLNRTVTDNMLCAGDTRSGGPQANLHDACQGDSGGPLVCLNDGRMTLVGIISWGLGCGQKDVPGVYTKVTNYLDWIRDNMRP
Clots [1]
  plasminogen activation: relatively high at low temperatures
Clots [2]
  amount of clot lysis: the amount of clot lysis at lower temperatures was less than that at higher temperatures
